We go through one molecule from paper PMC13077772 (2025).

The target in this assay is melanoma-associated antigen 3 (MAGE-A3) peptide presented by HLA-A*01:01 (human | ). Kind of assay: SPR.

B1: mage-513, purified soluble protein (designed binder)
chain: LTVEEAIRLLLETQRRYPELGPEERQVADGALRVASLLLDIIATRRLLGDDDKELEKQLLKRIERLFTAPLPERRRLVEELEEPVLEEAAQAARELVKREQQ
modifications: heavy chain HLA-A*01:01 ectodomain taken by convention from the MAGE-A3/HLA-A1 structure 5BRZ (candidate P04439 is a different allele, A*03:01)
As for B1, binding was characterised by a dissociation constant (Kd) of 29 nM. That is a double-digit nanomolar value.
